From US20110014656A1 (ZymoGenetics, published 2011)

Experiments:
[1] = molecular target: T1, human IL-17F (human, UniProt Q96PD4 31-163); assay: cell-based competition binding, FACS
T1 construct: also called hIL-17F; hIL17F
T1 sequence: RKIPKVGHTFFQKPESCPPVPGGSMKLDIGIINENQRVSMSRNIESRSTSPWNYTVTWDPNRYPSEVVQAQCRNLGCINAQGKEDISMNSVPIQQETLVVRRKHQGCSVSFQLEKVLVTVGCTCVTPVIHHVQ
Method: (§1) The biotinylation of the ligand allows for FACS detection using a secondary Streptavidin conjugated fluorophore. A reduction in cell bound ligand over a titration of the soluble receptor is recorded as a reduction in the mean fluorescence of the cells. Biotinylated ligands are individually pre-mixed at 1 ug/ml with titrating amounts of soluble receptor in staining media (HBSS+1% BSA+0.1% NaAzide+10 mM HEPES) in 100 ul volumes and incubated at RT for 15 minutes. A BHK cell line stably transfected with full length IL17RCx4 is prepared for ligand staining by resuspension with Versene (Invitrogen cat. 15040-066), equilibrating to 2×10e5 cells/100 ul, pelleting, and resuspension in the ligand/soluble receptor pre-mix. Stained cells are incubated at 4° for 30 minutes, washed 1× in staining media, and stained with Streptavidin-PE (BD Pharmingen cat. 554061) at a 1:100 ratio. Cells are incubated at 4° in the dark for 30 minutes, washed 2× in staining media, and re-suspended in a 1:1 ratio of staining media and Cytofix (BD Bioscience 554655). The BD LSRII Flow Cytometer or similar instrument is used for data collection and analysis. FIG. 5 depicts a standard graph. The graph was generated using the Prizm software program. The Y values represent the MFI normalized to maximum and minimum (100% and 0%) based on ligand only and no ligand/no soluble receptor control wells, and thus the percent binding of the ligand to the cells. The software calculates the IC50 for each curve.

[2] = molecular target: T2, human IL-17A (human, UniProt Q16552 24-155); assay: cell-based competition binding, FACS
T2 construct: also called hIL-17A; hIL17A
T2 sequence: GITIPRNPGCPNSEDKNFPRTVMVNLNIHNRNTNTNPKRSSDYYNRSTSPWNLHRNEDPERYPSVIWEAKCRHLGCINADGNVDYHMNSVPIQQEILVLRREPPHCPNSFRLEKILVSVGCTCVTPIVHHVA
Method: as §1

[3] = molecular target: T3, human IL-17RC, x4 splice variant, on transfected cells (human, UniProt Q8NAC3 21-791); assay: FACS, biotinylated cytokine on transiently transfected 293F cells
T3 construct: Expressed on 293F, BHK or NIH3T3 cells; also called hIL-17RCx4; hIL-17RCX4
T3 sequence: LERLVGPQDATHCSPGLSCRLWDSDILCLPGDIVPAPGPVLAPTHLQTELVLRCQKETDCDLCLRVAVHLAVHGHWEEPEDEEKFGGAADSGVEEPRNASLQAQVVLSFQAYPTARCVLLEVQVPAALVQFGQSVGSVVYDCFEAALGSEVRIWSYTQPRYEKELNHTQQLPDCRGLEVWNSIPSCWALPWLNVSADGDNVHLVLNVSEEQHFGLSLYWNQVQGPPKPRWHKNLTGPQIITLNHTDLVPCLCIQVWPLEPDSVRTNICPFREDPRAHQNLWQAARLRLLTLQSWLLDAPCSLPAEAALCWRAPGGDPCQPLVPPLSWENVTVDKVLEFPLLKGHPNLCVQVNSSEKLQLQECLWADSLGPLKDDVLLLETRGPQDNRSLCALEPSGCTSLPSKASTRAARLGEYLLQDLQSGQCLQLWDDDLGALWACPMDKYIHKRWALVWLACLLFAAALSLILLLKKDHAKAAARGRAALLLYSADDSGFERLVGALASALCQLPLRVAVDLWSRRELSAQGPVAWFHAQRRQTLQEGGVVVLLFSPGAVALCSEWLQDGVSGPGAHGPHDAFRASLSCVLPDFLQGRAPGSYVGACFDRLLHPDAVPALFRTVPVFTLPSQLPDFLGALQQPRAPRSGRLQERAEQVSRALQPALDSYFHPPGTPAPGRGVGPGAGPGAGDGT
Description: (§2) However, the other splice variants tested either included or excluded hIL-17RC exon 12. These variants were designated hIL-17RCx1 (identical in exon composition to mouse x1 above), hIL-17RCx4 (identical in exon composition to mouse x4 above), hIL-17RCx2, and hIL-17RCx7.

[4] = molecular target: T4, human IL-17RC, x1 splice variant, on transfected cells (human, UniProt Q8NAC3 21-791); assay: as above
T4 construct: Expressed on BHK, 293F or NIH3T3 cells; also called hIL-17RC; hIL-17RC (x1)
T4 sequence: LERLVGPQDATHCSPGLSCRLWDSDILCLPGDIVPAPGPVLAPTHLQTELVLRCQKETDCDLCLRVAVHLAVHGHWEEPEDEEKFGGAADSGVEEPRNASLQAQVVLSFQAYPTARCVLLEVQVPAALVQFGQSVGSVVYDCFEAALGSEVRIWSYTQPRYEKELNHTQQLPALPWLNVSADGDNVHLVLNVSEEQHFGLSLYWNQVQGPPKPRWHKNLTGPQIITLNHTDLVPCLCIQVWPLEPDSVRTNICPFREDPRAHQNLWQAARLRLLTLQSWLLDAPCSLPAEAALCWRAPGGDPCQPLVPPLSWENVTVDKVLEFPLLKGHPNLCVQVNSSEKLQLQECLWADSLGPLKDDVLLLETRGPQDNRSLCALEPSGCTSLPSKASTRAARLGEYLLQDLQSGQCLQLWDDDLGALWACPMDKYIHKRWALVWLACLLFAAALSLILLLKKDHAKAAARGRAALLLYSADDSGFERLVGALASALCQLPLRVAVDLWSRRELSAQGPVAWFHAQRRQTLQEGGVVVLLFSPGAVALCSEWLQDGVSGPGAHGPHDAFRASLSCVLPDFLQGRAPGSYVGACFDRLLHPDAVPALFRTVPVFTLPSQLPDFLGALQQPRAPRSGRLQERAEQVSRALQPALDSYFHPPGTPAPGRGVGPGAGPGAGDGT
Description: as §2

[5] = molecular target: T4, human IL-17RC, x1 splice variant, on …; assay: competition, cold competitor vs 125I-IL-17A on BHK hIL-17RC cells
Method: Cold competitors were added in 100 fold molar excess. […] Wells were incubated on ice for 1-hour followed by two washes with PBS (Invitrogen 20012-027) and one wash with a high salt solution (1.5M NaCL, 50 mM HEPES pH 7.4). Wells were extracted with 500 ul of 0.8M NaOH for 30 min. at room temperature and counts per minute were measured in a gamma counter (Packard Cobra II A5005).

[6] = molecular target: T5, human IL-17 receptor (IL-17RA) on transfected cells (human, UniProt Q96F46 33-320); assay: FACS, biotinylated cytokine on stably transfected BHK cells
T5 construct: it may not be the full-length receptor; also called hIL-17RA
T5 sequence: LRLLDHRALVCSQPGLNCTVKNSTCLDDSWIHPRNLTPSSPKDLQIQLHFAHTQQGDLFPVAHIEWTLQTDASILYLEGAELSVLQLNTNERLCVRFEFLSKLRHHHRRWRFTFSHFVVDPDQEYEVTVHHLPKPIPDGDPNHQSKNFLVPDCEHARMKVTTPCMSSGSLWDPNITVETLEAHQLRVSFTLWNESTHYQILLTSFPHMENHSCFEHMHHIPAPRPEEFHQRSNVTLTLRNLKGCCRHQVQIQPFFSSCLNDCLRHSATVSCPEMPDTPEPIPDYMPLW

B1: Variant 1390 (Fc fusion)
chain: LERLVGPQDATHCSPGLSCRLWDSDILCLPGDIVPAPGPVLAPTHLQTELVLRCQKETDCDLCLRVAVHLAVHGHWEEPEDEEKFGGAADSGVEEPRNASLQAQVVLSFQAYPTARCVLLEVQVPAALVQFGQSVGSVVYDCFEAALGSEVRIWSYTQPRYEKELNHTQQLPALPWLNVSADGDNVHLVLNVSEEQHFGLSLYWNQVQGPPKPRWHKNLTGPQIITLNHTDLVPCLCIQVWPLEPDSVRTNICPFREDPRAHQNLWQAARLRLLTLQSWLLDAPCSLPAEAALCWRAPGGDPCQPLVPPLSWENVTVDKVLEFPLLKGHPNLCVQVNSSEKLQLQECLWADSLGPLKDDVLLLETRGPQDNRSLCALEPSGCTSLPSKASTRAARLGEYLLQDLQSGQCLQLWDDDLGALWACPMDKYIHKEPKSSDKTHTCPPCPAPEAEGAPSVFLFPPKPKDTLMISRTPEVTCVVVDVSHEDPEVKFNWYVDGVEVHNAKTKPREEQYNSTYRVVSVLTVLHQDWLNGKEYKCKVSNKALPSSIEKTISKAKGQPREPQVYTLPPSRDELTKNQVSLTCLVKGFYPSDIAVEWESNGQPENNYKTTPPVLDSDGSFFLYSKLTVDKSRWQQGNVFSCSVMHEALHNHYTQKSLSLSPGK
notes: The entry may include the signal peptide; also called IL17RC 1390
IC50 [1]: 9 µg/mL | IC50 [2]: 12 µg/mL

B2: Variant 1459 (Fc fusion)
chain: AERLVGPQDATHCSPGLSCRLWDSDILCLPGDIVPAPGPVLAPTHLQTELVLRCQKETDCDLCLRVAVHLAVHGHWEEPEDEEKFGGAADSGVEEPRNASLQAQVVLSFQAYPTARCVLLEVQVPAALVQFGQSVGSVVYDCFEAALGSEVRIWSYTQPRYEKELNHTQQLPALPWLNVSADGDNVHLVLNVSEEQHFGLSLYWNQVQGPPKPRWHKNLTGPQIITLNHTDLVPCLCIQVWPLEPDSVRTNICPFREDPRAHQNLWQAARLRLLTLQSWLLDAPCSLPAEAALCWRAPGGDPCQPLVPPLSWENVTVDKVLEFPLLKGHPNLCVQVNSSEKLQLQECLWADSLGPLKDDVLLLETRGPQDNRSLCALEPSGCTSLPSKASTRAARLGEYLLQDLQSGQCLQLWDDDLGALWACPMDKYIHKEPKSSDKTHTCPPCPAPEAEGAPSVFLFPPKPKDTLMISRTPEVTCVVVDVSHEDPEVKFNWYVDGVEVHNAKTKPREEQYNSTYRVVSVLTVLHQDWLNGKEYKCKVSNKALPSSIEKTISKAKGQPREPQVYTLPPSRDELTKNQVSLTCLVKGFYPSDIAVEWESNGQPENNYKTTPPVLDSDGSFFLYSKLTVDKSRWQQGNVFSCSVMHEALHNHYTQKSLSLSPGK
notes: The entry may include the signal peptide; also called IL17RC 1459
IC50 [1]: 103 µg/mL | IC50 [2]: 126 µg/mL

B3: murine IL-17F (ligand)
chain: RKNPKAGVPALQKAGNCPPLEDNTVRVDIRIFNQNQGISVPREFQNRSSSPWDYNITRDPHRFPSEIAEAQCRHSGCINAQGQEDSTMNSVAIQQEILVLRREPQGCSNSFRLEKMLLKVGCTCVKPIVHQAA
notes: also called mIL-17F; mIL17F
binding result [3]: binds | binding result [4]: no binding

B4: human IL-17D (ligand, UniProt Q8TAD2 18-202, looked up)
chain: APRAGRRPARPRGCADRPEELLEQLYGRLAAGVLSAFHHTLQLGPREQARNASCPAGGRPADRRFRPPTNLRSVSPWAYRISYDPARYPRYLPEAYCLCRGCLTGLFGEEDVRFRSAPVYMPTVVLRRTPACAGGRSVYTEAYVTIPVGCTCVPEPEKDADSINSSIDKQGAKLLLGPNDAPAGP
notes: also called hIL-17D
binding result [5]: no binding (tested: 100 fold molar excess) | binding result [6]: no binding

B5: human IL-17C (ligand, UniProt Q9P0M4 19-197, looked up)
chain: HHDPSLRGHPHSHGTPHCYSAEELPLGQAPPHLLARGAKWGQALPVALVSSLEAASHRGRHERPSATTQCPVLRPEEVLEADTHQRSISPWRYRVDTDEDRYPQKLAFAECLCRGCIDARTGRETAALNSVRLLQSLLVLRRRPCSRDGSGLPTPGAFAFHTEFIHVPVGCTCVLPRSV
notes: also called hIL-17C
binding result [5]: no binding (tested: 100 fold molar excess)

B6: human IL-17E (ligand, UniProt Q9H293 33-177, looked up)
chain: YSHWPSCCPSKGQDTSEELLRWSTVPVPPLEPARPNRHPESCRASEDGPLNSRAISPWRYELDRDLNRLPQDLYHARCLCPHCVSLQTGSHMDPRGNSELLYHNQTVFYRRPCHGEKGTHKGYCLERRLYRVSLACVCVRPRVMG
notes: also called hIL-17E
binding result [5]: no binding (tested: 100 fold molar excess) | binding result [6]: no binding
